Data: paper PMC10185811, “FAT10 and NUB1L cooperate to activate the 26S proteasome” (Life Science Alliance, 2023)

Assays:
[1] = target: T1, NUB1L (NEDD8 ultimate buster 1 long), tagless (human, UniProt Q9Y5A7-1 1-615); assay: BLI; Octet; His6-RPN1 loaded on the nickel sensor; NUB1L, GST-FAT10, NUB1L with GST-FAT10 or NUB1L with GST in solution; Octet buffer (PBS, 0.1% Triton X-100, 1x ROTIBlock); 1:1 binding model; conditions: both partners purified
T1 construct: NUB1L, human, the long splice variant of NUB1 with one UBL and three UBA domains, printed mass 69.1 kD; The long splice variant is meant; which UniProt isoform id holds it was not checked; By my reading of the printed primers the insert begins at Ala2 (AQKKYLQ) and runs to the stop codon; also called NUB1 long; full-length WT NUB1L; source: recombinant, cloned into the pSUMO vector; expression, …
T1 sequence (looked up): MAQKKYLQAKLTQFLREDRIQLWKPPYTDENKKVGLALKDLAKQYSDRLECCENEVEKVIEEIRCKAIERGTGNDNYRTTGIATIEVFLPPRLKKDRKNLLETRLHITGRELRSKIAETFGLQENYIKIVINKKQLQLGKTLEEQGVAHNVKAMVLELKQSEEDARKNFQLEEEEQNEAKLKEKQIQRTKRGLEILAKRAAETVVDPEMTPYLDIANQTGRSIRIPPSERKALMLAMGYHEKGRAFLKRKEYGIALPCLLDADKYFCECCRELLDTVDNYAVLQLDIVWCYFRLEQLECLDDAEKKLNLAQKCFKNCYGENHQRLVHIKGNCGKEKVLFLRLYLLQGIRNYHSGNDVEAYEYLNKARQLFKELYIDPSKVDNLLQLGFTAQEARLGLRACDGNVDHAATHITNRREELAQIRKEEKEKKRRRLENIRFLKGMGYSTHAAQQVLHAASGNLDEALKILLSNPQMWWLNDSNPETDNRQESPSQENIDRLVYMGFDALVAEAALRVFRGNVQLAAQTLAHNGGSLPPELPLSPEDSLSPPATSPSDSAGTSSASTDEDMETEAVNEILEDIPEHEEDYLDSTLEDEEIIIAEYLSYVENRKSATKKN

His6-RPN10 = target: T2, His6-RPN10 (human, UniProt P55036 1-377); assay: BLI; Octet; His6-RPN10 on the sensor; GST-FAT10 alone or together with NUB1LΔUBL in solution; Octet buffer; 1:1 binding model; conditions: both partners purified
T2 construct: RPN10 (hS5α), subunit of the 19S regulator of the 26S proteasome, human; also called His–RPN10; hS5α; source: recombinant; expression and purification described before (Rani et al, 2012)
T2 sequence (P55036 whole entry): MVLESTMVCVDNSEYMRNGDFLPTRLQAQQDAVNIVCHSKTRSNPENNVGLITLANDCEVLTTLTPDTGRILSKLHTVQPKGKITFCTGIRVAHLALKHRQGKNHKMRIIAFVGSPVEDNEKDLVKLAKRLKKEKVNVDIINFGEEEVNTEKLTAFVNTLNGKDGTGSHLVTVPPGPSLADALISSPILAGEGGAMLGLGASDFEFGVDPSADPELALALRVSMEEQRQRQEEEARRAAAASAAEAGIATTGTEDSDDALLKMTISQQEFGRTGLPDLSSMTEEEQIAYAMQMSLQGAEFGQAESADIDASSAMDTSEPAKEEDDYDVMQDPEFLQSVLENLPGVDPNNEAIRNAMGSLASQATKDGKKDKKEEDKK

binding result [1]: binds
binding result (His6-RPN10): binds
B1: GST-FAT10 (natural protein, human, UniProt O15205 1-165, looked up)
chain: MAPNASCLCVHVRSEEWDLMTFDANPYDSVKKIKEHVRSKTKVPVQDQVLLLGSKILKPRRSLSSYGIDKEKTIHLTLKVVKPSDEELPLFLVESGDEAKRHLLQVRRSSSVAQVKAMIETKTGIIPETQIVTCNGKRLEDGKMMADYGIRKGNLLFLACYCIGG
notes: FAT10 (HLA-F adjacent transcript 10), human; source: recombinant; expression and purification previously described (Schmidtke et al, 2006)
